The text below walks through data of paper PMC4974627 (Biochemistry, 2016).

The series deals with the molecule itself. In words: native MS.

B1: Arabidopsis thaliana S-nitrosoglutathione reductase (AtGSNOR), CysSH-treated control (unmodified) (enzyme)
chain: ATQGQVITCKAAVAYEPNKPLVIEDVQVAPPQAGEVRIKILYTALCHTDAYTWSGKDPEGLFPCILGHEAAGIVESVGEGVTEVQAGDHVIPCYQAECRECKFCKSGKTNLCGKVRSATGVGIMMNDRKSRFSVNGKPIYHFMGTSTFSQYTVVHDVSVAKIDPTAPLDKVCLLGCGVPTGLGAVWNTAKVEPGSNVAIFGLGTVGLAVAEGAKTAGASRIIGIDIDSKKYETAKKFGVNEFVNPKDHDKPIQEVIVDLTDGGVDYSFECIGNVSVMRAALECCHKGWGTSVIVGVAASGQEISTRPFQLVTGRVWKGTAFGGFKSRTQVPWLVEKYMNKEIKVDEYITHNLTLGEINKAFDLLHEGTCLRCVLDTSK
Consider B1, for which the “stoichiometry N” value amounted to 2.
